Measured values: paper PMC9376089, “Reformation of the chondroitin sulfate glycocalyx enables progression of AR-independent prostate cancer”

Assays:
AR-DBD (EMSA) [1] = target: T1, AR-DBD (EMSA) (UniProt P10275 556-629); assay: competition; 20 nmol unlabeled competitor (so in the source) vs labeled TMPRSS2-ARE; BLI: 20 mM Tris pH 8, 150 mM NaCl, 5% glycerol, 2 mM DTT, 0.1 mM PMSF, temperature not stated; EMSA: 10 mM Tris pH 7.5, 50 mM KCl, DTT (1 mM); 2.5 mM with 0.25%; conditions: protein: recombinant; chain copies: 2; blunt
T1 sequence (P10275 556-629): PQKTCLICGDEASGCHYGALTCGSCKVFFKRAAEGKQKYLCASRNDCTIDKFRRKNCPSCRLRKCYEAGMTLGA

AR-DBD (EMSA) [2] = target: T1, AR-DBD (EMSA); assay: EMSA; 100 fmol probe, AR-DBD titration, poly(dI-dC); BLI: 20 mM Tris pH 8, 150 mM NaCl, 5% glycerol, 2 mM DTT, 0.1 mM PMSF, temperature not stated; EMSA: 10 mM Tris pH 7.5, 50 mM KCl, DTT (1 mM); 2.5 mM with 0.25%; conditions: protein: recombinant, chain copies: 2, blunt

B1: CHST11-ARE (unlabeled competitor) (dsDNA)
DNA 1: AGATGCCCCAGTGTTCTAG
DNA 2: CTAGAACACTGGGGCATCT
B1: binds (AR-DBD (EMSA) [1]).

B2: CHST11-ARE (EMSA probe) (dsDNA)
DNA 1: AGATGCCCCAGTGTTCTAG
DNA 2: CTAGAACACTGGGGCATCT
B2: binds (AR-DBD (EMSA) [2]).

B3: PSA-ARE (EMSA probe) (dsDNA)
DNA 1: TACAAATAGGTTCTTGGAGTACTTTACTAGGCATGGACAATG
DNA 2: CATTGTCCATGCCTAGTAAAGTACTCCAAGAACCTATTTGTA
B3: binds (AR-DBD (EMSA) [2]; label: 5' IRD700 on strand 1).
